Source: patent US20250171562A1

Each binder was assayed against mixture of three Der p 2 specific recombinant human IgE clones H10, H12, P4E (human) (UniProt P01854) (assay: RBL-SX38 IgE displacement, FACS).
Sequence of mixture of three Der p 2 specific recombinant human IgE clones H10, H12, P4E (human) (P01854 other isoform, or with tags, fused parts or gaps): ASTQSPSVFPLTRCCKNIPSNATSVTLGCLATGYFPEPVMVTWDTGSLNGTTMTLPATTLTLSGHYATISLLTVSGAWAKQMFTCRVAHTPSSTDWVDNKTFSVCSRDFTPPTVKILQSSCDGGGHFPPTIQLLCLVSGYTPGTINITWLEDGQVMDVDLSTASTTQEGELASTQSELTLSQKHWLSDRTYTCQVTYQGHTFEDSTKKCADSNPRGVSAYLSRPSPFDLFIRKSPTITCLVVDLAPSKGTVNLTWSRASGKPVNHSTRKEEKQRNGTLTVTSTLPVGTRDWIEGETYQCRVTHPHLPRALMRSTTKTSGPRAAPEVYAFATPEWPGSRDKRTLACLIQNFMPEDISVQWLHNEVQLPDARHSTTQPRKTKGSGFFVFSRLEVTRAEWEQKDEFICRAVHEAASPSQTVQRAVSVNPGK

Row | Binder | EC50 | Max effect/effect 1 µM
1 | CIgG4F1A1(G4S)1 (Fc fusion) chain 1: GPPCPPCPAPEFLGGPSVFLFPPKPKDTLMISRTPEVTCVVVDVSQEDPEVQFNWYVDGVEVHNAKTKPREEQFNSTYRVVSVLTVLHQDWLNGKEYKCKVSNKGLPSSIEKTISKAKGQPREPQVYTLPPCQEEMTKNQVSLWCLVKGFYPSDIAVEWESNGQPENNYKTTPPVLDSDGSFFLYSRLTVDKSRWQEGNVFSCSVMHEALHNHYTQKSLSLSLGKGGGGSDVQLQESGGGLVQAGGSLKLSCAASGGSLSRYDMGWFRQAPGKEREFVARISWSGTTKYYADAVKGRFAISRDNAKNTVYLQMNSLKPEDTAVYYCAAAFYGNRGYYDVNAYTSSGQGTQVTVS chain 2: GPPCPPCPAPEFLGGPSVFLFPPKPKDTLMISRTPEVTCVVVDVSQEDPEVQFNWYVDGVEVHNAKTKPREEQFNSTYRVVSVLTVLHQDWLNGKEYKCKVSNKGLPSSIEKTISKAKGQPREPQVCTLPPSQEEMTKNQVSLSCAVKGFYPSDIAVEWESNGQPENNYKTTPPVLDSDGSFFLVSRLTVDKSRWQEGNVFSCSVMHEALHNHYTQKSLSLSLGKGGGGSEVQLLESGGGLVQPGGSLRLSCAASGFTFGNYDMAWVRQAPGKRPEWVSSIDTGGDITHYADSVKGRFTISRDNAKNTLYLQMNSLRPEDTAVYWCATDEEYALGPNEFDYYGQGTLVTVSS | – | 8%
2 | CIgG4F1A1(RS) (Fc fusion) chain 1: GPPCPPCPAPEFLGGPSVFLFPPKPKDTLMISRTPEVTCVVVDVSQEDPEVQFNWYVDGVEVHNAKTKPREEQFNSTYRVVSVLTVLHQDWLNGKEYKCKVSNKGLPSSIEKTISKAKGQPREPQVYTLPPCQEEMTKNQVSLWCLVKGFYPSDIAVEWESNGQPENNYKTTPPVLDSDGSFFLYSRLTVDKSRWQEGNVFSCSVMHEALHNHYTQKSLSLSLGKRSDVQLQESGGGLVQAGGSLKLSCAASGGSLSRYDMGWFRQAPGKEREFVARISWSGTTKYYADAVKGRFAISRDNAKNTVYLQMNSLKPEDTAVYYCAAAFYGNRGYYDVNAYTSSGQGTQVTVS chain 2: GPPCPPCPAPEFLGGPSVFLFPPKPKDTLMISRTPEVTCVVVDVSQEDPEVQFNWYVDGVEVHNAKTKPREEQFNSTYRVVSVLTVLHQDWLNGKEYKCKVSNKGLPSSIEKTISKAKGQPREPQVCTLPPSQEEMTKNQVSLSCAVKGFYPSDIAVEWESNGQPENNYKTTPPVLDSDGSFFLVSRLTVDKSRWQEGNVFSCSVMHEALHNHYTQKSLSLSLGKRSEVQLLESGGGLVQPGGSLRLSCAASGFTFGNYDMAWVRQAPGKRPEWVSSIDTGGDITHYADSVKGRFTISRDNAKNTLYLQMNSLRPEDTAVYWCATDEEYALGPNEFDYYGQGTLVTVSS | – | 0%
3 | CIgG4F1A1(G4S)2 (Fc fusion) chain 1: GPPCPPCPAPEFLGGPSVFLFPPKPKDTLMISRTPEVTCVVVDVSQEDPEVQFNWYVDGVEVHNAKTKPREEQFNSTYRVVSVLTVLHQDWLNGKEYKCKVSNKGLPSSIEKTISKAKGQPREPQVYTLPPCQEEMTKNQVSLWCLVKGFYPSDIAVEWESNGQPENNYKTTPPVLDSDGSFFLYSRLTVDKSRWQEGNVFSCSVMHEALHNHYTQKSLSLSLGKGGGGSGGGGSDVQLQESGGGLVQAGGSLKLSCAASGGSLSRYDMGWFRQAPGKEREFVARISWSGTTKYYADAVKGRFAISRDNAKNTVYLQMNSLKPEDTAVYYCAAAFYGNRGYYDVNAYTSSGQGTQVTVS chain 2: GPPCPPCPAPEFLGGPSVFLFPPKPKDTLMISRTPEVTCVVVDVSQEDPEVQFNWYVDGVEVHNAKTKPREEQFNSTYRVVSVLTVLHQDWLNGKEYKCKVSNKGLPSSIEKTISKAKGQPREPQVCTLPPSQEEMTKNQVSLSCAVKGFYPSDIAVEWESNGQPENNYKTTPPVLDSDGSFFLVSRLTVDKSRWQEGNVFSCSVMHEALHNHYTQKSLSLSLGKGGGGSGGGGSEVQLLESGGGLVQPGGSLRLSCAASGFTFGNYDMAWVRQAPGKRPEWVSSIDTGGDITHYADSVKGRFTISRDNAKNTLYLQMNSLRPEDTAVYWCATDEEYALGPNEFDYYGQGTLVTVSS | – | 18%

Continued, values first:

Row | EC50 | Max effect/effect 1 µM | Binder
4 | 2.1 nM | 95% | NIgG4F1A1(G4S)2 (Fc fusion) chain 1: DVQLQESGGGLVQAGGSLKLSCAASGGSLSRYDMGWFRQAPGKEREFVARISWSGTTKYYADAVKGRFAISRDNAKNTVYLQMNSLKPEDTAVYYCAAAFYGNRGYYDVNAYTSSGQGTQVTVSGGGGSGGGGSGPPCPPCPAPEFLGGPSVFLFPPKPKDTLMISRTPEVTCVVVDVSQEDPEVQFNWYVDGVEVHNAKTKPREEQFNSTYRVVSVLTVLHQDWLNGKEYKCKVSNKGLPSSIEKTISKAKGQPREPQVYTLPPCQEEMTKNQVSLWCLVKGFYPSDIAVEWESNGQPENNYKTTPPVLDSDGSFFLYSRLTVDKSRWQEGNVFSCSVMHEALHNHYTQKSLSLSLGK chain 2: EVQLLESGGGLVQPGGSLRLSCAASGFTFGNYDMAWVRQAPGKRPEWVSSIDTGGDITHYADSVKGRFTISRDNAKNTLYLQMNSLRPEDTAVYWCATDEEYALGPNEFDYYGQGTLVTVSSGGGGSGGGGSGPPCPPCPAPEFLGGPSVFLFPPKPKDTLMISRTPEVTCVVVDVSQEDPEVQFNWYVDGVEVHNAKTKPREEQFNSTYRVVSVLTVLHQDWLNGKEYKCKVSNKGLPSSIEKTISKAKGQPREPQVCTLPPSQEEMTKNQVSLSCAVKGFYPSDIAVEWESNGQPENNYKTTPPVLDSDGSFFLVSRLTVDKSRWQEGNVFSCSVMHEALHNHYTQKSLSLSLGK
5 | 35.5 nM | 92% | NIgG4F1A1(G4S)3 (Fc fusion) chain 1: DVQLQESGGGLVQAGGSLKLSCAASGGSLSRYDMGWFRQAPGKEREFVARISWSGTTKYYADAVKGRFAISRDNAKNTVYLQMNSLKPEDTAVYYCAAAFYGNRGYYDVNAYTSSGQGTQVTVSGGGGSGGGGSGGGGSGPPCPPCPAPEFLGGPSVFLFPPKPKDTLMISRTPEVTCVVVDVSQEDPEVQFNWYVDGVEVHNAKTKPREEQFNSTYRVVSVLTVLHQDWLNGKEYKCKVSNKGLPSSIEKTISKAKGQPREPQVYTLPPCQEEMTKNQVSLWCLVKGFYPSDIAVEWESNGQPENNYKTTPPVLDSDGSFFLYSRLTVDKSRWQEGNVFSCSVMHEALHNHYTQKSLSLSLGK chain 2: EVQLLESGGGLVQPGGSLRLSCAASGFTFGNYDMAWVRQAPGKRPEWVSSIDTGGDITHYADSVKGRFTISRDNAKNTLYLQMNSLRPEDTAVYWCATDEEYALGPNEFDYYGQGTLVTVSSGGGGSGGGGSGGGGSGPPCPPCPAPEFLGGPSVFLFPPKPKDTLMISRTPEVTCVVVDVSQEDPEVQFNWYVDGVEVHNAKTKPREEQFNSTYRVVSVLTVLHQDWLNGKEYKCKVSNKGLPSSIEKTISKAKGQPREPQVCTLPPSQEEMTKNQVSLSCAVKGFYPSDIAVEWESNGQPENNYKTTPPVLDSDGSFFLVSRLTVDKSRWQEGNVFSCSVMHEALHNHYTQKSLSLSLGK
6 | 2.6 nM | 92% | NIgG4F1A1(G4S)1 (Fc fusion) chain 1: DVQLQESGGGLVQAGGSLKLSCAASGGSLSRYDMGWFRQAPGKEREFVARISWSGTTKYYADAVKGRFAISRDNAKNTVYLQMNSLKPEDTAVYYCAAAFYGNRGYYDVNAYTSSGQGTQVTVSGGGGSGPPCPPCPAPEFLGGPSVFLFPPKPKDTLMISRTPEVTCVVVDVSQEDPEVQFNWYVDGVEVHNAKTKPREEQFNSTYRVVSVLTVLHQDWLNGKEYKCKVSNKGLPSSIEKTISKAKGQPREPQVYTLPPCQEEMTKNQVSLWCLVKGFYPSDIAVEWESNGQPENNYKTTPPVLDSDGSFFLYSRLTVDKSRWQEGNVFSCSVMHEALHNHYTQKSLSLSLGK chain 2: EVQLLESGGGLVQPGGSLRLSCAASGFTFGNYDMAWVRQAPGKRPEWVSSIDTGGDITHYADSVKGRFTISRDNAKNTLYLQMNSLRPEDTAVYWCATDEEYALGPNEFDYYGQGTLVTVSSGGGGSGPPCPPCPAPEFLGGPSVFLFPPKPKDTLMISRTPEVTCVVVDVSQEDPEVQFNWYVDGVEVHNAKTKPREEQFNSTYRVVSVLTVLHQDWLNGKEYKCKVSNKGLPSSIEKTISKAKGQPREPQVCTLPPSQEEMTKNQVSLSCAVKGFYPSDIAVEWESNGQPENNYKTTPPVLDSDGSFFLVSRLTVDKSRWQEGNVFSCSVMHEALHNHYTQKSLSLSLGK
